In patent US20110135573A1, “METALLOPROTEINASE 9 AND METALLOPROTEINASE 2 BINDING PROTEINS” (DYAX CORP., priority 2009, published 2011):

Tests used:
MMP-9 = MMP-9 (Homo sapiens, UniProt P14780); assay: Enzyme inhibition assay (single point inhibition, IC50/Ki,app), substrate M-2350; format: biochemical; parameters: Human MMP-9 catalytic domain (BIOMOL, SE-244); purchased BIOMOL SE-244
Experimental: 343 unique sFabs from the anti-MMP-9/-2 M237-D02 affinity maturation campaign were discovered by phage display, produced in small scale (6 mL cultures in deep 24-well plates) and screened to select inhibitors with sub-nanomolar potency against the human enzymes and at least single-digit nanomolar potency toward the mouse orthologues. […] Isolates which appeared potent against both human and mouse MMP-2 were then subjected to IC50 analysis against hMMP-9. Sub-nanomolar inhibitors of hMMP-9 were further tested by IC50 analysis against mMMP-9 and h/m MMP-2, if sufficient small-scale sFab material was available. Thirteen potential h/m MMP-9/-2 sFab inhibitors were then produced in medium scale (250 mL cultures in flasks) and retested for h/m MMP-9 and h/m MMP-2 inhibition. Five potential lead candidates were reformatted as IgGs and retested in enzyme inhibition assays.
Human MMP-9 (Biomol #SE-244), mouse MMP-9 (R&D Systems #909-MM-010), human MMP-2 (Biomol #SE-237) and mouse MMP-2 (R&D Systems #924-MP-010) were tested at final concentrations of 1 nM, 0.25-0.4 nM, 2.5 nM and 0.2 nM, respectively. Target enzymes were incubated with inhibitor for two hours at 30° C. in reaction buffer (50 mM Tris-HCl pH 7.5, 150 mM NaCl, 5 mM CaCl2, 0.05% Brij-35) in a total volume of 90 μL using a white 96 well plate (Costar). Reactions contained 5 μL of small-scale sFab stock solution (average concentration of 500 nM) for single point inhibition analysis or a concentration series of sFab/IgG for IC50 Ki,app determinations. […] Reactions were initiated by the addition of 10 μL of a 10× concentrated stock of substrate, Mca-Lys-Pro-Leu-Gly-Leu-Dap(Dnp)-Ala-Arg-NH2, (Bachem M-2350), at final concentration of 10 μM and monitored at 30° C. in a Molecular Devices' Gemini fluorescence plate reader. […] Kinetic data were acquired by the increase in fluorescence, and initial rates for each condition were plotted against the total inhibitor concentration. […]

h-MMP-9/h-TIMP-1 complex = h-MMP-9/h-TIMP-1 complex (Homo sapiens, UniProt P14780); assay: Biacore 3000 binding to antibody-coated CM5 chip; conditions: 25° C.
Experimental: The non competitive inhibition model implies that the ternary complex enzyme-substrate-inhibitor can form. It is however possible that this complex cannot form with bigger substrates, in which case the antibody would behave as a competitive inhibitor. In order to address this issue, the ability of M0237-D02 antibody to bind to the h-MMP-9 when the enzyme is complexed to its natural inhibitor h-TIMP-1 was determined. The reasoning is that if the antibody cannot bind to the h-MMP-9/h-TIMP-1 complex, it would probably behave as a competitive inhibitor of this enzyme in the presence of bigger substrates.
(§1) Experiments were performed at 25° C. with the help of a Biacore 3000 instrument. The MMP-9 binding protein (M0166F10) and the M0237-D02 antibody were coated to a CM5 chip either via standard amine coupling or using an anti-Fc antibody surface. Then either the active, human MMP-9 catalytic domain (BIOMOL, SE-244), the human pro-MMP-9 (R&D, 911-MP), the human TIMP-1 (R&D, 970-TM) or a h-MMP-9/h-TIMP-1 complex were flowed over the antibody surfaces, and binding was recorded.

[1] = test system: carrageenan-stimulated mouse air pouch; assay: Carrageenan-stimulated mouse air pouch, inflammatory cell infiltration; format: in vivo; conditions: FIG. 2
Source text: The purpose of the following experiments were to determine the effect of 539A-M0237-D02 on inflammation and specifically on inflammatory cell infiltration into the carrageenan-stimulated mouse air pouch and on the arthritic index in collagen-induced arthritis (CIA) mice.
For the carrageenan-stimulated mouse air pouch model, subcutaneous injection of air into the hind flank or back of mice produces an air pouch in a week, the interior surface of which contains both fibroblast-like and macrophage-like cells. Inflammatory stimulation of the pouch results in leukocyte recruitment to the pouch and release of mediators (cytokines) into the exudate. Preventing inflammatory cell infiltration into the air pouch may translate into preventing inflammation of the synovium in rheumatoid arthritis.
The effect of 539A-M0237-D02 on inflammatory cell infiltration was compared to inflammatory cell infiltration indomethacin and a control (PBS). In addition, inflammatory cell recruitment was compared to an unstimulated mouse.

[2] = molecular target: T1, Human MMP-9 catalytic domain (Homo sapiens, UniProt P14780); assay: Biacore 3000 binding to antibody-coated CM5 chip; conditions: 25° C.
T1 construct: Human MMP-9 catalytic domain (BIOMOL, SE-244); purchased BIOMOL SE-244
Experimental: as §1

human TIMP-1 = molecular target: T2, human TIMP-1 (Homo sapiens, UniProt P01033); assay: Biacore 3000 binding to antibody-coated CM5 chip; conditions: Direct capture; 25° C.
T2 construct: purchased R&D Systems 970-TM
Experimental: as §1

human pro-MMP-9 = molecular target: T3, human pro-MMP-9 (Homo sapiens, UniProt P14780); assay: Biacore 3000 binding to antibody-coated CM5 chip; conditions: Direct capture, 25° C.
T3 construct: the human pro-MMP-9 (R&D, 911-MP); purchased R&D Systems 911-MP
Experimental: as §1

T1 sequence (P14780 107-444 limits assumed): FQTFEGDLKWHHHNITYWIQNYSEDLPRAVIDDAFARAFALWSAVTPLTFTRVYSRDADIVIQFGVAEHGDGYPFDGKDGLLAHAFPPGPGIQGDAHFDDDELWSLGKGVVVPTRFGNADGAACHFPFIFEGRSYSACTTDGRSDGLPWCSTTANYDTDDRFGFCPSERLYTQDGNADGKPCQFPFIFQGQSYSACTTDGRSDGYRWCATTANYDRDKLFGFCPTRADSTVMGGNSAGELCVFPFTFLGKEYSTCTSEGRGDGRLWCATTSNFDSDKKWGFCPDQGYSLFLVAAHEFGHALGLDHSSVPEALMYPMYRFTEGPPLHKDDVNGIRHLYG
h-MMP-9/h-TIMP-1 complex, sequence (P14780 107-444 limits assumed): as above
h-MMP-9/h-TIMP-1 complex, sequence (P01033 24-207 partner): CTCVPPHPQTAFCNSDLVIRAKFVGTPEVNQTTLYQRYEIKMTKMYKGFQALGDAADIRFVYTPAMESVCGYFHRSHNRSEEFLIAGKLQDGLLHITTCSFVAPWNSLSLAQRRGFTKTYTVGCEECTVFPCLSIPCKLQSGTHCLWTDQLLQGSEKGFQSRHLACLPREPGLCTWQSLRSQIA
T3 sequence (P14780 20-707 limits assumed): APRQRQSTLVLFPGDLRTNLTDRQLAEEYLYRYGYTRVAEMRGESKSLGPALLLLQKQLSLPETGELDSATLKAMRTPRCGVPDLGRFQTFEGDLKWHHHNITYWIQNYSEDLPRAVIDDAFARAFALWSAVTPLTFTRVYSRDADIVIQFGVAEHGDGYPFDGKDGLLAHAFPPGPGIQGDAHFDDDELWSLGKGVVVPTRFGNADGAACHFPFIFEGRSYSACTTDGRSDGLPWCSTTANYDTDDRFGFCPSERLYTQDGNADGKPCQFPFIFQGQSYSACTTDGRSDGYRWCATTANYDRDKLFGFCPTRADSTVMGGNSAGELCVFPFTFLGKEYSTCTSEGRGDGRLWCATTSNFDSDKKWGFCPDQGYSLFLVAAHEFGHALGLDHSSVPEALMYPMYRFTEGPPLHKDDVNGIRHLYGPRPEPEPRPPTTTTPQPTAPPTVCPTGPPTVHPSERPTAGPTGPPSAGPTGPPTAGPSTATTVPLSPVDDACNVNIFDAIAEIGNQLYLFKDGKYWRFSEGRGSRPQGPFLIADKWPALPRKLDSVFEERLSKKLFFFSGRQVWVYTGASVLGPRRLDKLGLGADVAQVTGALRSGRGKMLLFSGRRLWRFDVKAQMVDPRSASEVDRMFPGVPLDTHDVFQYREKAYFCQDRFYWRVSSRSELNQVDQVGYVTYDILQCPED
MMP-9, sequence (P14780 107-444 limits assumed): as the sequence (P14780 107-444 limits assumed) above
T2 sequence (P01033 24-207): as the sequence (P01033 24-207 partner) above

affinity for hMMP-9 (in words) (MMP-9): high affinity | binding of huTIMP-1/cat-huMMP-9 (h-MMP-9/h-TIMP-1 complex; Direct capture): No | binding of huTIMP-1/cat-huMMP-9 (h-MMP-9/h-TIMP-1 complex; Fc capture): no binding was observed | binding of huTIMP-1/cat-huMMP-9 (h-MMP-9/h-TIMP-1 complex; Fc capture, listed as 539A-M0237D02): No | binding of Cat-huMMP-9 ([2]; Direct capture (amine coupling)): No | binding of Cat-huMMP-9 ([2]; Fc capture (anti-Fc antibody surface)): could be observed | binding of Cat-huMMP-9 ([2]; Fc capture (anti-Fc antibody surface), listed as 539A-M0237D02): Yes | binding of huTIMP-1 (human TIMP-1): No | binding of Pro-huMMP-9 (human pro-MMP-9; listed as 539A-M0237D02): No | binding of Pro-huMMP-9 (human pro-MMP-9; listed as M237-D02): observed neither
B1: M0237-D02: MMP-9/-2 dual reactive antibody inhibitor (parental); sFab and hIgG1 (antibody, V domains shown)
VH: EVQLLESGGGLVQPGGSLRLSCAASGFTFSQYPMWWVRQAPGKGLEWVSYIVPSGGRTYYADSVKGRFTISRDNSKNTLYLQMNSLRAEDTAVYYCAKDRAYGDYVGWNGFDYWGQGTLVTVSS
VL: DIQMTQSPATLSLSPGERATLSCRASQSISSFLAWYQQKPGQAPRLLIYDASYRATGIPARFSGSGSGTDFTLTISSLEPEDYAVYYCQQRGNWPITFGQGTRLEIK
lymphocyte infiltration [1]: significantly decreased | neutrophil infiltration [1]: significantly decreased | total white blood cell infiltration [1]: significantly decreased
